{"source": "the DeepSol protein solubility set"}
{"assay": "soluble on expression in E. coli; label from the status in PepcDB or PDB records"}
{"sequence": "MGSDKIHHHHHHMAESSFVYNGVEITWLKHAGFRIKGSRVVYIDPYDIPEELEKADVILVTHDHFDHMDVKSIRKLSKDDTVVVHPSGCIIEGFESCEVGVGTEAEVKGVKIKAVPAYNVDKPFHKENCVGYIVGIDGVKIYHAGDTDRIPEMKEIEVDIALLPVGGTYTMNLQEAIEAAKDIRAKYYIPMHFGAIPQTSADPEEFKRKVKGAVILKPLF", "soluble on expression in E. coli": "not soluble"}
{"sequence": "MKKFKNILFATQGLPGHSDALEQAIQLAYNNRGQLAGLIAFPAFPADLQRYQEPYEQSYLNTLMETVEACRSQHHIHKDEVPFPLMVEHSEQPAVAIIKSALNHHIDLLIKEAEPMTHSQQGFKALDMTLLRKCPCPVWLHRPLAKPKANRRVAVAIDPITTTEQQKALALRLLELSRSIANTCDSRLHIVSCWEYYLENYLHDQVWIQVEQQQIAEEIAQAKIRHEQALRQLIDESGITGELVIHHLHGKPDELIPEWVTQENIDILVMGTLARTGIAGFVIGNTAENIVQSIECSLVALKPEGFVSPIKNE", "soluble on expression in E. coli": "soluble"}
{"sequence": "MLIDDIDFADLYLQQLKLAHRTEKTPDHWDQRAEKMAENCASPTDSYLQQLIAKIDLQGAQTLFDMGCGPGTVSLALADKLTTVYGVDYSQGMLNVAARRAAALKADNVHWIQRAWEEDWSDLPRCDIAVASRSTLVADMRHAMSKLNNQARLRVYTTHLVSTSFVSPAIQRAAGREVIELPNYIFALNVLYQMGIYAHVDFIRGQNCQQDNSTWERFEQNVSWSLGALNDDERERLYHWYQQQDARALAPASRDWALIWWDSVPQEAL", "soluble on expression in E. coli": "not soluble"}
{"sequence": "MGSDKIHHHHHHMSRTVVISQPTYLPWLGYFELIAKSDVFVFLDNVQCVKQSWHNRNRLKGNDDQLIWLTVPVKAHPLDTPLSKIQILNNPSVWRRKHLGTIQTCLGSAVYFHTIFPFIQEFINYEYEYLVDLNISLIKLFADLLGLSPNFVKASDLNPQGRRTEMLVNLCQQLDADYYYSPMGSKVYIEEEKHLFIEEDIKLNYQIWEHPCYSQRGKIFVSHLSILDTLMNIGLEATRSLIIPNKLKDI", "soluble on expression in E. coli": "not soluble"}
{"sequence": "MMWKQAMTDVAEKTLTNIKRFNGRFPHVSEDGEHYELNNNNEWTNGFWSGILWLCYEYTNDPAFRQAAASTVRSFQQRMEQNLELDHHDIGFLYSLSSKAQWIIERDERAKQLTIEAADVLMKRWREKIELFQAWGPEGDLSNGGRIIVDCLMNLPLLFWASEVTGNPDYREAAIIHADKTRRFIVRGDDSTYHTFYFNQETGEALRGGTHQGYEDGSTWSRGQAWAIYGFAIAYRYTGNERYLETAKRTAKYFIENLPADYVAYWDFNAPITPDTKRDSSASAIASCGILELLSHLQETDPDKAFFQQSVQKQMTSLVENYASEKDAQGLIKRGSYSVRIGHAPDDYVIWGDYFYTEALMRLEKLRNGYWYEGKLEHHHHHH", "soluble on expression in E. coli": "soluble"}
{"sequence": "GPPGPPGPPGPPGPRGRTGPPGPPGPPGPP", "soluble on expression in E. coli": "soluble"}
{"sequence": "YSQVQLPFNDLLYIETSSRSHRVVLYTEKDRMEFTATLGDILKQEPRLFQCHRSFLVNPLNIFKVDRIDRLVYFQNGTTCLVSRNKVRDIVSIVDKYQKDRKR", "soluble on expression in E. coli": "not soluble"}
{"sequence": "MGSDKIHHHHHHMEMLEEHRCFEGWQQRWRHDSSTLNCPMTFSIFLPPPRDHTPPPVLYWLSGLTCNDENFTTKAGAQRVAAELGIVLVMPDTSPRGEKVANDDGYDLGQGAGFYLNATQPPWATHYRMYDYLRDELPALVQSQFNVSDRCAISGHSMGGHGALIMALKNPGKYTSVSAFAPIVNPCSVPWGIKAFSSYLGEDKNAWLEWDSCALMYASNAQDAIPTLIDQGDNDQFLADQLQPAVLAEAARQKAWPMTLRIQPGYDHSYYFIASFIEDHLRFHAQYLLK", "soluble on expression in E. coli": "not soluble"}
{"sequence": "MGSDKIHHHHHHMQRIAENYDALPRQLKNVATYIEQHRSSVMVDRTSDIAASCGVHPSAVVRFAQRFGFSGFSDLQAVFRQAYTGQGSSSPSYQQRIRKLIDEKPGALSGGSVAREFIAASRGGLEELEAGLDDKQFDAAVKMLQQADNIYVIGVRRSFPVASYIVYALQHTPKRVHLVSGFGGMYREQIRSVKKGDVVIAISFAPYGKETQYCLRVAHHHQARTLVITDSQLSPLARYATTQLYVKEGSAFAFRSLTSTICLCQALFIALAYKLELNVEESKDTGGYDD", "soluble on expression in E. coli": "not soluble"}
{"sequence": "MQKTVVEIEKASHVLKLLGDKTRLTIMAILKQRECCVCELLEVFDMSQPAISQHLRKLKDAGLVKEDKRGQWIYYSLNSQNELYDFIQDILQHIPDQTENIRKIEETNPTLRCGC", "soluble on expression in E. coli": "soluble"}
{"sequence": "MPQNAQEYYEKVKKFTKKKDGAIRAIEDTKKAMEKKAATKSAKAGRKLQASRKKHWYDRFRWFVSSDGFLVVGGRDADTNEEIFKKYMEKRDIVFHTQTPGAPLTVVKTGGKEVPDSTLQEVSQFAVSYSSLWKAGQFSGDCYWIKSEQVTKTPESGEYLKKGAFVIRGERNYFKDVPLGIAVGLELKGETRIIGGPASAVRKHGDYILEIIPGKFNQNDISKKIYRIYADELNDPRFVKQIASPDQIAMMIPAGESDLRNQKPEKKGQGFGPEGEGYETPEMEAGFEDLKGEIDEESGENAGEEFADEEFAEEIGEGSEVKVKAEAREGNEEIIEIRGVKKE", "soluble on expression in E. coli": "not soluble"}
{"sequence": "ASDRQLGPPRMCEPSPREQLMESIRKGKELKQITPPEA", "soluble on expression in E. coli": "soluble"}
{"sequence": "MGSDKIHHHHHHMADQMQWANALSTRHSLEAAVTDVVERAVSLLTAPADLGLVFISSAFTSEYSRLLPLLAEKLSVPVLIGCSGGGVIGTTVNGEIQELEAEPAISLTLAHLPGVKVQVFHVVAEELPDLDSSPDAWVDLIGVPASPTPQFILLSSSFASGINDLLQGLDFAYPGSVIVGGQASGGGMGGRVALFCNESDGEECQSLYREGTVGIALTGNIVLETIVAQGCRPIGKPLQVTKADRNIILELDEQVPLVVLRDLIASLSEHERTLAQHSLFVGVAMDEFKLALQQGDFLIRGILGVDPTAGAIAIGDRVRPGQRLQFHLRDAQASAEDLELLLQSYQTQRESEPSAVAALMFACLGRGEGLYGKPNFDSELFRRYLSDIPVGGFFCGGEIGPVGGRTFLHAYTSAFGICRQNQL", "soluble on expression in E. coli": "not soluble"}
{"sequence": "MSGAYDESAMSDETTDSFWEVGNYKRTVKRIEDGHRLCNDMMSCIQERAKIEKAYSQQLTDWSKRWRQLVERGPQYGTLERAWLAVMTEAEKVSELHQEVKNNLLNEDLEKVKNWQKDAYHKQMMGGFKETKEADEGFRKAQKPWAKKLKELETAKKTYHMACKEEKIASAREANSKGEASVTTDQQKKLQEKVDKCKNDVQKAKEKYEKSLDELNKCTPQYMENMEVVFDQCQQFEEKRLNFLREVLLDTKRHLNLTESQSYATVYRELERTIVSASAQEDLKWFSSVHGPGMHMNWPQFEEFNPDLSHAISKKEKVKRNHDGVTLTQVTHGAEHGTPQTGDRGSVSSYEKNQQYSAEWSDDEQPPTAAQSASETNGGNPFEEDSKGVRVRALYDYEGQEQDELTFKAGDELTKLEDEDEQGWCKGRLDSGQLGLYPANYVEPV", "soluble on expression in E. coli": "not soluble"}
{"sequence": "MGSDKIHHHHHHMLCSGYLGHDMEDDCDIIIIGAGIAGTACALRCARAGLSVLLLERAEIPGSKNLSGGRLYTHALAELLPQFHLTAPLERRITHESLSLLTPDGVTTFSSLQPGGESWSVLRARFDPWLVAEAEKEGVECIPGATVDALYEENGRVCGVICGDDILRARYVVLAEGANSVLAERHGLVTRPAGEAMALGIKEVLSLETSAIEERFHLENNEGAALLFSGRICDDLPGGAFLYTNQQTLSLGIVCPLSSLTQSRVPASELLTRFKAHPAVRPLIKNTESLEYGAHLVPEGGLHSMPVQYAGNGWLLVGDALRSCVNTGISVRGMDMALTGAQAAAQTLISACQHREPQNLFPLYHHNVERSLLWDVLQRYQHVPALLQRPGWYRTWPALMQDISRDLWDQGDKPVPPLRQLFWHHLRRHGLWHLAGDVIRSLRCL", "soluble on expression in E. coli": "not soluble"}
{"sequence": "SRLSIDLYPKIETSNIMVVTSYAGASASDIENNVTKVLENTLNGVSNLKHITSKSRENASVITLQFNEGVDIEVATNDVRDKLDAVSNFLPDDVNKPMIFKFGTDDIPITMLSVQAKESTMALSKILEDKVTNALARLDGVGAVSIMGTVKREIQVYCDPAKLEAYNLTVEAVSQIISAENKNVPAGLIDLGNKTSSIRIQGEFADARQLNQIVVASVGGRNVYLSDVARVEDTHAENEQESYNNNVRGAMIMINKQSGANSVAISRAVRGALPEIQASLPSDVELGTIFDTSDNIVNTINSLRD", "soluble on expression in E. coli": "not soluble"}
